The record followed here is US20150217006A1, “AL-F-18-LABELED, AL-F-19-LABELED AND GA-68-LABELED GASTRIN-RELEASING PEPTIDE RECEPTOR (GRPR)-ANTAGONISTS FOR IMAGING OF PROSTATE CANCER” (Immunomedics, Inc., priority 2014, published 2015).

The test addresses gastrin-releasing peptide receptor (GRPR) (human) (UniProt P30550). Description: competition with 125I-BBN on PC-3 cells, repeat experiment, inhibitor 250 to 2 nM.

pIC50: −log10 of the molar value.

gastrin-releasing peptide receptor (GRPR) (human), sequence (P30550 whole entry): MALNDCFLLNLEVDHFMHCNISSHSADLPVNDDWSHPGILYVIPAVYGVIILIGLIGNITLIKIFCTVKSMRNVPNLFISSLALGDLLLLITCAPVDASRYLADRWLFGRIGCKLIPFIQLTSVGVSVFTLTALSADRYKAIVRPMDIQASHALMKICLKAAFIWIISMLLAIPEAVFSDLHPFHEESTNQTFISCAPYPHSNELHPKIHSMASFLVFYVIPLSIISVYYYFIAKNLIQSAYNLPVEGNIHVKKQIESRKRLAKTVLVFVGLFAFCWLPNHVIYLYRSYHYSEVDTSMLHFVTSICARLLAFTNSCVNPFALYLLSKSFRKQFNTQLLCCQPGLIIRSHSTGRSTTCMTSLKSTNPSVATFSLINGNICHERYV

What is called pIC50 is −log10 of the IC50, conventionally taken in molar units. The low end stands for a large IC50, the high end for a small IC50. Substance commercially available BBN peptide showed a pIC50 of 7.61.
